The supplement of paper PMC11246515
± gives the standard deviation of the averaged measurements.

Assay: total protein half-life in vivo (active degradation + dilution); higher = more stable protein
[1] = E. coli NCM3722 delta-clpP delta-lon delta-hslV, growth: N-lim chemostat, doubling time 6 h
[2] = E. coli NCM3722 delta-clpP, growth: N-lim chemostat, doubling time 6 h
[3] = E. coli NCM3722 delta-hslV, growth: N-lim chemostat, doubling time 6 h
[4] = E. coli NCM3722 delta-smpB, growth: N-lim chemostat, doubling time 6 h
[5] = wild type E. coli NCM3722, growth: C-lim chemostat, doubling time 3 h
[6] = wild type E. coli NCM3722, growth: C-lim chemostat, doubling time 6 h
[7] = wild type E. coli NCM3722, growth: C-lim chemostat, doubling time 12 h
[8] = wild type E. coli NCM3722, growth: N-lim chemostat, doubling time 6 h
[9] = wild type E. coli NCM3722, growth: N-lim chemostat, doubling time 12 h
[10] = wild type E. coli NCM3722, growth: P-lim chemostat, doubling time 6 h
[11] = wild type E. coli NCM3722, growth: P-lim chemostat, doubling time 12 h
[12] = E. coli NCM3722 delta-lon, growth: N-lim chemostat, doubling time 6 h

| Sequence | total protein half-life in vivo [1] [h] | total protein half-life in vivo [2] [h] | total protein half-life in vivo [3] [h] | total protein half-life in vivo [4] [h] | total protein half-life in vivo [5] [h] | total protein half-life in vivo [6] [h] | total protein half-life in vivo [7] [h] | total protein half-life in vivo [8] [h] | total protein half-life in vivo [9] [h] | total protein half-life in vivo [10] [h] | total protein half-life in vivo [11] [h] | total protein half-life in vivo [12] [h] |
| --- | --- | --- | --- | --- | --- | --- | --- | --- | --- | --- | --- | --- |
| MKQVCVLGNGQLGRMLRQAGEPLGIAVWPVGLDAEPAAVPFQQSVITAEIERWPETALTRELARHPAFVNRDVFPIIADRLTQKQLFDKLHLPTAPWQLLAERSEWPAVFDRLGELAIVKRRTGGYDGRGQWRLRANETEQLPAECYGECIVEQGINFSGEVSLVGARGFDGSTVFYPLTHNLHQDGILRTSVAFPQANAQQQAQAEEMLSAIMQELGYVGVMAMECFVTPQGLLINELAPRVHNSGHWTQNGASISQFELHLRAITDLPLPQPVVNNPSVMINLIGSDVNYDWLKLPLVHLHWYDKEVRPGRKVGHLNLTDSDTSRLTATLEALIPLLPPEYASGVIWAQSKFG | 5.64 ± 0.49 | 4.96 ± 1.2 | 3.96 ± 0.012 | 4.51 ± 0.38 | 3.19 ± 0.41 | 6.83 ± 1.3 | 9.39 ± 0.78 | 4.393 ± 0.015 | 8.59 ± 3.2 | 6.17 ± 0.59 | 12.1 ± 0.25 | – |
| MKQWIAALLLMLIPGVQAAKPQKVTLMVDDVPVAQVLQALAEQEKLNLVVSPDVSGTVSLHLTDVPWKQALQTVVKSAGLITRQEGNILSVHSIAWQNNNIARQEAEQARAQANLPLENRSITLQYADAGELAKAGEKLLSAKGSMTVDKRTNRLLLRDNKTALSALEQWVAQMDLPVGQVELSAHIVTINEKSLRELGVKWTLADAQHAGGVGQVTTLGSDLSVATATTHVGFNIGRINGRLLDLELSALEQKQQLDIIASPRLLASHLQPASIKQGSEIPYQVSSGESGATSVEFKEAVLGMEVTPTVLQKGRIRLKLHISQNVPGQVLQQADGEVLAIDKQEIETQVEVKSGETLALGGIFTRKNKSGQDSVPLLGDIPWFGQLFRHDGKEDERRELVVFITPRLVSSE | 3.42 ± 1.4 | – | – | – | – | – | 6.11 | – | 4.56 | – | 4.33 | – |
| MKQYLELMQKVLDEGTQKNDRTGTGTLSIFGHQMRFNLQDGFPLVTTKRCHLRSIIHELLWFLQGDTNIAYLHENNVTIWDEWADENGDLGPVYGKQWRAWPTPDGRHIDQITTVLNQLKNDPDSRRIIVSAWNVGELDKMALAPCHAFFQFYVADGKLSCQLYQRSCDVFLGLPFNIASYALLVHMMAQQCDLEVGDFVWTGGDTHLYSNHMDQTHLQLSREPRPLPKLIIKRKPESIFDYRFEDFEIEGYDPHPGIKAPVAI [P0A884] | 4.71 ± 0.41 | 4.939 ± 0.04 | 4.26 ± 0.21 | 4.48 ± 0.38 | 3.23 ± 0.11 | 5.59 ± 0.4 | 10.3 ± 0.11 | 4.62 ± 0.15 | 7.94 ± 0.4 | 5.65 ± 0.14 | 10.4 ± 2.7 | 4.54 ± 0.25 |
| MKRAVVVFSGGQDSTTCLVQALQQYDEVHCVTFDYGQRHRAEIDVARELALKLGARAHKVLDVTLLNELAVSSLTRDSIPVPDYEPEADGIPNTFVPGRNILFLTLAAIYAYQVKAEAVITGVCETDFSGYPDCRDEFVKALNHAVSLGMAKDIRFETPLMWIDKAETWALADYYGKLDLVRNETLTCYNGFKGDGCGHCAACNLRANGLNHYLADKPTVMAAMKQKTGLR | 4.91 ± 0.072 | 4.53 ± 0.16 | 4.47 ± 0.14 | 3.87 ± 0.57 | 2.6 ± 0.17 | 5.36 ± 0.46 | 9.333 ± 0.044 | 4.84 ± 0.59 | 7.72 ± 0.73 | – | 12.4 ± 1.3 | 5.02 ± 0.59 |
| MKREEIADLMAFVVVAEERSFTRAAARLSMAQSALSQIVRRIEERLGLRLLTRTTRSVVPTEAGEHLLSVLGPMLHDIDSAMASLSDLQNRPSGTIRITTVEHAAKTILLPAMRTFLKSHPEIDIQLTIDYGLTDVVSERFDAGVRLGGEMDKDMIAIRIGPDIPMAIVGSPDYFSRRSVPTSVSQLIDHQAINLYLPTSGTANRWRLIRGGREVRVRMEGQLLLNTIDLIIDAAIDGHGLAYLPYDQVERAIKEKKLIRVLDKFTPDLPGYHLYYPHRRHAGSAFSLFIDRLKYKGAV | 5.34 ± 0.45 | – | > 8 | 6.01 ± 1.5 | 2.929 ± 0.019 | – | – | 5.238 ± 0.043 | 11.7 | 5.36 | 9.19 ± 3.4 | 6.34 |
| MKRHLNTCYRLVWNHMTGAFVVASELARARGKRGGVAVALSLAAVTSLPVLAADIVVHPGETVNGGTLANHDNQIVFGTTNGMTISTGLEYGPDNEANTGGQWVQDGGTANKTTVTSGGLQRVNPGGSVSDTVISAGGGQSLQGRAVNTTLNGGEQWMHEGAIATGTVINDKGWQVVKPGTVATDTVVNTGAEGGPDAENGDTGQFVRGDAVRTTINKNGRQIVRAEGTANTTVVYAGGDQTVHGHALDTTLNGGYQYVHNGGTASDTVVNSDGWQIVKNGGVAGNTTVNQKGRLQVDAGGTATNVTLKQGGALVTSTAATVTGINRLGAFSVVEGKADNVVLENGGRLDVLTGHTATNTRVDDGGTLDVRNGGTATTVSMGNGGVLLADSGAAVSGTRSDGKAFSIGGGQADALMLEKGSSFTLNAGDTATDTTVNGGLFTARGGTLAGTTTLNNGAILTLSGKTVNNDTLTIREGDALLQGGSLTGNGSVEKSGSGTLTVSNTTLTQKAVNLNEGTLTLNDSTVTTDVIAQRGTALKLTGSTVLNGAIDPTNVTLASGATWNIPDNATVQSVVDDLSHAGQIHFTSTRTGKFVPATLKVKNLNGQNGTISLRVRPDMAQNNADRLVIDGGRATGKTILNLVNAGNSASGLATSGKGIQVVEAINGATTEEGAFVQGNRLQAGAFNYSLNRDSDESWYLRSENAYRAEVPLYASMLTQAMDYDRIVAGSRSHQTGVNGENNSVRLSIQGGHLGHDNNGGIARGATPESSGSYGFVRLEGDLMRTEVAGMSVTAGVYGAAGHSSVDVKDDDGSRAGTVRDDAGSLGGYLNLVHTSSGLWADIVAQGTRHSMKASSDNNDFRARGWGWLGSLETGLPFSITDNLMLEPQLQYTWQGLSLDDGKDNAGYVKFGHGSAQHVRAGFRLGSHNDMTFGEGTSSRAPLRDSAKHSVSELPVNWWVQPSVIRTFSSRGDMRVGTSTAGSGMTFSPSQNGTSLDLQAGLEARVRENITLGVQAGYAHSVSGSSAEGYNGQATLNVTF | 5.867 ± 0.045 | 6.13 ± 0.57 | 4.9 ± 0.93 | 5.53 ± 0.46 | 3.05 ± 0.062 | 4.43 ± 1.3 | 4.46 ± 0.86 | 5.92 ± 0.28 | 9.16 ± 2 | 5.77 ± 0.94 | 11.9 ± 0.57 | 5.37 ± 0.085 |
